The values below come from ChEMBL document CHEMBL3091431, “Aminopyridyl/Pyrazinyl Spiro[indoline-3,4'-piperidine]-2-ones As Highly Selective and Efficacious c-Met/ALK Inhibitors” (ACS Med Chem Lett, 2013).

Compound in this series: Nc1ncnc2c1ncn2[C@@H]1O[C@H](COP(=O)(O)OP(=O)(O)OP(=O)(O)O)[C@@H](O)[C@H]1O
Kind of series: Inhibition of human ALK (unknown origin) using poly[Glu:Tyr] as substrate by nanoliter kinase assay.

B1: ALK tyrosine kinase receptor (Homo sapiens), Q9UM73 (protein)
chain: MGAIGLLWLLPLLLSTAAVGSGMGTGQRAGSPAAGPPLQPREPLSYSRLQRKSLAVDFVVPSLFRVYARDLLLPPSSSELKAGRPEARGSLALDCAPLLRLLGPAPGVSWTAGSPAPAEARTLSRVLKGGSVRKLRRAKQLVLELGEEAILEGCVGPPGEAAVGLLQFNLSELFSWWIRQGEGRLRIRLMPEKKASEVGREGRLSAAIRASQPRLLFQIFGTGHSSLESPTNMPSPSPDYFTWNLTWIMKDSFPFLSHRSRYGLECSFDFPCELEYSPPLHDLRNQSWSWRRIPSEEASQMDLLDGPGAERSKEMPRGSFLLLNTSADSKHTILSPWMRSSSEHCTLAVSVHRHLQPSGRYIAQLLPHNEAAREILLMPTPGKHGWTVLQGRIGRPDNPFRVALEYISSGNRSLSAVDFFALKNCSEGTSPGSKMALQSSFTCWNGTVLQLGQACDFHQDCAQGEDESQMCRKLPVGFYCNFEDGFCGWTQGTLSPHTPQWQVRTLKDARFQDHQDHALLLSTTDVPASESATVTSATFPAPIKSSPCELRMSWLIRGVLRGNVSLVLVENKTGKEQGRMVWHVAAYEGLSLWQWMVLPLLDVSDRFWLQMVAWWGQGSRAIVAFDNISISLDCYLTISGEDKILQNTAPKSRNLFERNPNKELKPGENSPRQTPIFDPTVHWLFTTCGASGPHGPTQAQCNNAYQNSNLSVEVGSEGPLKGIQIWKVPATDTYSISGYGAAGGKGGKNTMMRSHGVSVLGIFNLEKDDMLYILVGQQGEDACPSTNQLIQKVCIGENNVIEEEIRVNRSVHEWAGGGGGGGGATYVFKMKDGVPVPLIIAAGGGGRAYGAKTDTFHPERLENNSSVLGLNGNSGAAGGGGGWNDNTSLLWAGKSLQEGATGGHSCPQAMKKWGWETRGGFGGGGGGCSSGGGGGGYIGGNAASNNDPEMDGEDGVSFISPLGILYTPALKVMEGHGEVNIKHYLNCSHCEVDECHMDPESHKVICFCDHGTVLAEDGVSCIVSPTPEPHLPLSLILSVVTSALVAALVLAFSGIMIVYRRKHQELQAMQMELQSPEYKLSKLRTSTIMTDYNPNYCFAGKTSSISDLKEVPRKNITLIRGLGHGAFGEVYEGQVSGMPNDPSPLQVAVKTLPEVCSEQDELDFLMEALIISKFNHQNIVRCIGVSLQSLPRFILLELMAGGDLKSFLRETRPRPSQPSSLAMLDLLHVARDIACGCQYLEENHFIHRDIAARNCLLTCPGPGRVAKIGDFGMARDIYRASYYRKGGCAMLPVKWMPPEAFMEGIFTSKTDTWSFGVLLWEIFSLGYMPYPSKSNQEVLEFVTSGGRMDPPKNCPGPVYRIMTQCWQHQPEDRPNFAIILERIEYCTQDPDVINTALPIEYGPLVEEEEKVPVRPKDPEGVPPLLVSQQAKREEERSPAAPPPLPTTSSGKAAKKPTAAEISVRVPRGPAVEGGHVNMAFSQSNPPSELHKVHGSRNKPTSLWNPTYGSWFTEKPTKKNNPIAKKEPHDRGNLGLEGSCTVPPNVATGRLPGASLLLEPSSLTANMKEVPLFRLRHFPCGNVNYGYQQQGLPLEAATAPGAGHYEDTILKSKNSMNQPGP
Usually Km stands for the substrate concentration at which the rate is half of its maximum. With B1, the Km was found to be 50 µM.
